In general, Km refers to the substrate concentration at which the rate is half of its maximum. In general, Vmax refers to the top rate of the reaction or transport when substrate is in excess. For orientation: kcat means the number of substrate molecules converted per active site and unit of time at saturation. For orientation: kcat/Km means the turnover number divided by the Michaelis constant.

Format in all cases: biochemical
Substrate in series [1]: CN(C)c1ccc(/N=N/c2ccc(C(=O)NCCCC[C@H](NC(=O)[C@H](CCC(=O)NCCNc3cccc4c(S(=O)(=O)O)cccc34)NC(=O)[C@H](CC3CCCCC3)NC(=O)N3CCOCC3)C(=O)O)cc2)cc1
The series is described as follows: in vitro activity assay (fluorescence, substrate cleavage) with Cath S. The conditions noted are these: other: Cath S, measurement performed at pH 7.5, 37.0 °C.

Substrate in series [2]: CN(C)c1ccc2c(c1)Oc1cc(N(C)C)ccc1C21OC(=O)c2cc(C(=O)NCC[C@H](NC(=O)[C@H](CC3CCCCC3)NC(=O)N3CCOCC3)C(=O)NCCNC(=O)c3ccc(-c4c5ccc(=O)cc-5oc5cc(O)ccc45)c(C(=O)O)c3)ccc21
As to the kind of experiment: in vitro activity assay (fluorescence, substrate cleavage) with Papain. The note with it: other: Papain; measurement performed at pH 5.5; pH 5.5; 37.0 °C. The protocol: (§1) […] The substrates were solved in DMSO and added to enzyme solution with a final concentration of 50 μM.
(§2) Fluorescence was measured with an Tecan SAFIRE II spectrometer (excitation wavelength: 336 nm; emission wavelength: 490 nm; excitation band: 10.0 nm; emission band: 10.0 nm; amplification (manual): 90).

Substrate in series [3]: CN(C)c1ccc(/N=N/c2ccc(C(=O)NCCCC[C@H](NC(=O)[C@H](CCC(=O)NCCNc3cccc4c(S(=O)(=O)O)cccc34)NC(=O)[C@H](CC3CCCCC3)NC(=O)N3CCOCC3)C(=O)O)cc2)cc1
The series is described as above. The note with it: other: Papain; measurement performed at pH 7.5; pH 7.5; 37.0 °C. The method, then: as §1, §2

Substrate in series [4]: CN(C)c1ccc2c(c1)Oc1cc(N(C)C)ccc1C21OC(=O)c2cc(C(=O)NCC[C@H](NC(=O)[C@H](CC3CCCCC3)NC(=O)N3CCOCC3)C(=O)NCCNC(=O)c3ccc(-c4c5ccc(=O)cc-5oc5cc(O)ccc45)c(C(=O)O)c3)ccc21
As to the kind of experiment: in vitro activity assay (fluorescence, substrate cleavage) with Cath K. The conditions noted are these: other: Cath K; measurement performed at pH 5.5; pH 5.5; 37.0 °C. The protocol:
as §1, §2

Substrate in series [5]: CN(C)c1ccc(/N=N/c2ccc(C(=O)NCCCC[C@H](NC(=O)[C@H](CCC(=O)NCCNc3cccc4c(S(=O)(=O)O)cccc34)NC(=O)[C@H](CC3CCCCC3)NC(=O)N3CCOCC3)C(=O)O)cc2)cc1
The description is as above. The conditions noted are these: other: Cath K; measurement performed at pH 7.5; pH 7.5; 37.0 °C. The method, then:
as §1, §2

B1: Cath S (Homo sapiens) (protein)
chain: LPDSVDWREKGCVTEVKYQGSCGACWAFSAVGALEAQLKLKTGKLVSLSAQNLVDCSTEKYGNKGCNGGFMTTAFQYIIDNKGIDSDASYPYKAMDQKCQYDSKYRAATCSKYTELPYGREDVLKEAVANKGPVSVGVDARHPSFFLYRSGVYYEPSCTQNVNHGVLVVGYGDLNGKEYWLVKNSWGHNFGEEGYIRMARNKGNHCGIASFPSYPEI
On to B1, for which, in series [1], the Km worked out at 32 µM, the Vmax turned out to be 0.144 µmol/min, the kcat stood at 0.11 s⁻¹ and the specificity constant (kcat/Km) stood at 3260 M⁻¹ s⁻¹.

B2: Papain (Carica papaya) (protein)
chain: IPEYVDWRQKGAVTPVKNQGSCGSCWAFSAVVTIEGIIKIRTGNLNEYSEQELLDCDRRSYGCNGGYPWSALQLVAQYGIHYRNTYPYEGVQRYCRSREKGPYAAKTDGVRQVQPYNEGALLYSIANQPVSVVLEAAGKDFQLYRGGIFVGPCGNKVDHAVAAVGYGPNYILIKNSWGTGWGENGYIRIKRGTGNSYGVCGLYTSSFYPVKN
Turning to B2, in series [2], the Km turned out to be 6.3 µM, the Vmax came out at 0.0024 µmol/min and the kcat is 0.002 s⁻¹. Besides, in series [3], the Km worked out at 520 µM, the Vmax came to 0.096 µmol/min, the kcat was 0.1 s⁻¹ and the kcat/Km worked out at 273 M⁻¹ s⁻¹.

B3: Cath K (Homo sapiens) (protein)
chain: APDSVDYRKKGYVTPVKNQGQCGSCWAFSSVGALEGQLKKKTGKLLNLSPQNLVDCVSENDGCGGGYMTNAFQYVQKNRGIDSEDAYPYVGQEESCMYNPTGKAAKCRGYREIPEGNEKALKRAVARVGPVSVAIDASLTSFQFYSKGVYYDESCNSDNLNHAVLAVGYGIQKGNKHWIIKNSWGENWGNKGYILMARNKNNACGIANLASFPKM
On to B3, for which, in series [4], the Km came out at 35 µM, the Vmax turned out to be 0.438 µmol/min and the kcat came out at 0.192 s⁻¹. In series [5], the Km came to 190 µM, the maximal velocity (Vmax) came to 0.018 µmol/min and the kcat/Km is 27 M⁻¹ s⁻¹.
